One substance from patent publication US20090280134A1 can be followed below.

For assay [1], the target named is PSGL-1/mIgG2b fusion protein co-expressed with porcine α1,3 galactosyltransferase (α-Gal substituted) (human; mouse) (UniProt Q14242). Kind of assay: sandwich ELISA, fusion protein made in COS cells with α1,3GalT against the same made in COS without α1,3GalT. (ELISA stands for enzyme-linked immunosorbent assay.)
For assay [2] the target is unchanged. Kind of assay: sandwich ELISA, fusion protein made in CHO cells with α1,3GalT against the same made without α1,3GalT.
Assay [3] has as its target PSGL-1/mIgG2b fusion protein co-expressed in CHO-K1 cells with porcine α1,3GalT and core 2 β1,6 GlcNAc transferase (C2 GnTI) (human; mouse) (UniProt Q14242). Kind of assay: sandwich ELISA, fusion protein from CHO-K1 with α1,3GalT and C2 GnTI against fusion protein from CHO-K1 with α1,3GalT alone.
Assay [4] addresses PSGL-1/mIgG2b fusion protein co-expressed with porcine α1,3 galactosyltransferase (α-Gal substituted) (human; mouse) (UniProt Q14242). Kind of assay: sandwich ELISA, fusion protein made in 293T cells with α1,3GalT against the same made without α1,3GalT.
The target of assay [5] is PSGL-1/mIgG2b fusion protein co-expressed in CHO-K1 cells with porcine α1,3GalT and core 2 β1,6 GlcNAc transferase (C2 GnTI) (human; mouse) (UniProt Q14242). Kind of assay: sandwich ELISA, fusion protein from CHO-K1 with α1,3GalT and C2 GnTI against fusion protein from CHO-K1 without α1,3GalT.

For the substance “peroxidase-conjugated Griffonia (Bandeiraea) simplicifolia I isolectin B4 (cat.no. L-5391; Sigma)”, the fold increase in relative O.D. (GSA-reactivity/anti-mouse IgG reactivity) in assay [1] came to 5.3 fold; in assay [2], 1.8 fold; in assay [4], 3.1 fold. Besides, the fold increase in α-Gal epitope density (relative O.D., GSA-reactivity/anti-mouse IgG reactivity) in assay [3] came out at 7.4 fold; in assay [5] it was 13 fold.
